Assay: soluble on expression in E. coli; label from the status in PepcDB or PDB records

| Sequence | soluble on expression in E. coli |
| --- | --- |
| MAHHHHHHMPLTDEIQLEQLAPTIKGDASWSTGPIYVVCDVGGTNARVGFARAAQHEGSGLHIIYVRFRVTKRDIRQLLEFFDEVLQHLKKNLPYRAGPFLRRVASGAVSVPGPLTNGQLAGPFSNLKGIARLADYPVELFPRGRSALLNDLEAGSYGVLALSNAGMLSDYFKVMWKGTQWDALSEGKPVGSTIGHGRCMVVAPGTGVGSSLIHYVGVSDSYVVLALECGCLSMSWCANEDSKYVQALAGYMASKARVKGLDSTVAPIWEAAANGSGLEFNYAYEKEGPKASAPLKSAPEVAKLAKAGSDPAAVAAMDRLYKNLIGLTAETTMQFLPLTCVLMGDSIVSNSFYFDNPENVKKLQARINEHTMERQLKFLSRTTFLRQVRSVNINLLGCLEFGSQLSNRADQLAPTKSNL | not soluble |
| MGSDKIHHHHHHMIKVNRYEIFLDFSFQTGDYKGYEKIEMESDEETVVLDAVGLKIVKAKVNGKEIEFSQDESRVNVKSGSFSGILEVEFEGKVTERKLVGIYKASYKDGYVISTQFEATHARDFIPCFDHPAMKARFKLTVRVDKGLKVISNMPVVREKEENGKVVYEFDETPKMSTYLLYLGIGNFEEIRDEGKIPTIIVATIPGKVQKGRFSMQISRNSIEFYEKYFEIPYQLPKVHLIAIPEFAYGAMENWGAITFRETALLADDSSSVYQKFRVAEVVAHELAHQWFGNLVTLKWWDDLWLNESFATFMSHKAISQLFPSWNFWDYFVLNQTSRALEKDSVSTTHPIEAHVRDPNEVEQMFDDISYGKGASILRMIEAYVGEENFRRGVVNYLKKFSYSNAQGSDLWNSISEVYGSDISPIMADWITKPGYPMVRVSVSGKRVSLEQERFSLIGNVENLLYKIPLTMEVNGKVVTHLLDKERDTMVFEEDVKSLKVNVNRTGFYRVFYYNNSDLVFNSNLSELDKWGIINDYWAFLLAGKIGFKEYERVISKFFNDKDFLPVNELSNELFTLHAINPDKYQGIAKEFHRIQLKNWRNSKDELGRLTYSNILYRLAAIDDEFSLGLSELFRFYGSLDSDTRQGVAVAYAITYEDNSVDELLERFRKETFDEEKLRYLTAMLFFRKPYLVGNTLSLILSGEIKKQDIPLTLSTAAYNPYAKSAVLNWIKMHINFMREAYKGTGILGRRLAEVIPLIGIGAERETEQFFSNLNMPEAERGIGTGLELLKAYSRLK | not soluble |
| MESLQNHFLIAMPSLDDTFFERTVIYLCEHDEKGAMGLVINKPLGIEVNSLLEQMDLPTEQVSADLAMGSQVLMGGPVSQDRGFVLHTSQPYWANSTELGSGLMLTTSRDVLTAIGSKRSPDKFLVALGYAGWSKNQLEQELADNSWLTIPADHALLFDINHEDRWQQASRSLGFEAWQLSTQAGHALEHHHHHH | soluble |
| MSLKGDYFFMDRRPLILVAEENLHNLELLNSHMKTLNYDCICAKQGVRAIILAQTQKPDLIILDMILSDLSGSQVINHLKQDSKTANIPIIAVIPFILVQNQDHLFLTGADDYITKPYNFIQLNTLITHYVNRRHSSSLLSEGHHHHHH | soluble |
| HMAMASKEMFEDTVEERVINEEYKIWKKNTPFLYDLVMTHALQWPSLTVQWLPEVTKPEGKDYALHWLVLGTHTSDEQNHLVVARVHIPNDDAQFDASHCDSDKGEFGGFGSVTGKIECEIKINHEGEVNRARYMPQNPHIIATKTPSSDVLVFDYTKHPAKPDPSGECNPDLRLRGHQKEGYGLSWNSNLSGHLLSASDDHTVCLWDINAGPKEGKIVDAKAIFTGHSAVVEDVAWHLLHESLFGSVADDQKLMIWDTRSNTTSKPSHLVDAHTAEVNCLSFNPYSEFILATGSADKTVALWDLRNLKLKLHTFESHKDEIFQVHWSPHNETILASSGTDRRLNVWDLSKIGEEQSAEDAEDGPPELLFIHGGHTAKISDFSWNPNEPWVICSVSEDNIMQIWQMAENIYNDE | soluble |
| MQNPIDSLLYVKISAEQAGKIFENLESSIPLPIQLSEPGQKEDFKAENIKPEMILAGMLTVFAYDRENPHITYYRKIFNLLRPDIRKEMTEAAIIKIKNNDFDMAEEILLSLEGLNPDDGITKLNLALLMEERSQFCEMRELFEDALSFNKRAEELYSELILFEPPLPGVFFNAAYFFIKQKNYIKAKSLLKTYLEIENDSSETAEFRKAKASELLKTISEQALDDELFQKAYKCIDLGEEEKAAESIKLFLRKNPKVWNAWFLLGWALRRMGRWEDARSSFLKTIELLENSEISDKEPLCDVYNELAICLMELELFDEAEKHLINALSLDSENIKIISNLGTLALKQGKQEEAEAFFRTVLEINPDDKIALNVLGKPRA | not soluble |
| MGSDKIHHHHHHMANRLNQLLKQWLSQKDTQKWVLATIIETDGSSYRKAGAMMMINDLGQYFGLLSGGCLESDIMLQARRCWDSGRNRIVEYDMREEEDLAWKLGIGCGGMVRILLQPVDEANQYLQLDSLYALLESNQTAEYCQVINDQVPLNTLKTLTLKQAAPEQAKSIEGALKKADTDRKTETQQGVFKQYLKPAPHLAVFGGGVDARPVVAIATQLGWQVTLVDPRTSYARNGHFDNSVSVVRDAIESLEQNRWLQQIDMAIIMTHNIKLDAQSLALVQKSSAKYVGMLGPIHRTDRVLDLIPTTREQLVKPLANPVGLRLGGELPESIALSMLSEAHAFIEQQNGLSISGILRQ | not soluble |
| MGKLALAAKITHVPSMYLSELPGKNHGCRQGAIDGHKEISKRCREMGVDTIIVFDTHWLVNSAYHINCADHFEGVYTSNELPHFIRDMTYNYEGNPELGQLIAEEALKLGVRAKAHNIPSLKLEYGTLVPMRYMNEDKHFKVVSISAFCTVHDFADSRKLGEAILKAIEQYDGTVAVLASGSLSHRFIDDQRAEEGMNSYTREFDRQMDERVVKLWREGQFKEFCNMLPEYADYCYGEGNMHDTVMLLGMLGWDKYDGKVEFITELFPSSGTGQVNAVFPLPA | not soluble |
| MSLVLRKRSMKLGDLKVHTLAIPLREPIQFSWEPFPHPVYVFSIVEVEAGGFKGYSAIEFGAAYKHFLETTVKLTIQGLDIEIEDVDARLLEVGSWAIQRLGALEVAIWDLIAKREGLPLYRLLGGGRRKVKVYASTGRLLSAEETVKMVEKYAELGIDVVKLRFRRERINEDLEVLKAVAREFSDVKISVDANQAWSYTPPYWSRKKAMKVAKELENFEVLWLEEPLWKDDVEGYRWLRENTSIEISGGELEHGIQRFRMLIEGGAFDIVQADAVYSNGIQECRKVAALAEAFNLKFMPHAWDPGLGWLANLHLAASLPEKLCPYIETPLDPLWWNEVMFGVLNGEVELEKGYAKLPEQPGLGFEPDEEKMKKFRIAEGHHHHHH | not soluble |
| MTMFGKIFSKKTPKTDIKSNGEALNASEIEQFIKDTLSHYISDNFPQGVLAVCQQLSITQKKKITIKLLMPFVCQGELDLLAQTLSENLARTVNFEIDLAIKPVRQFSLGNDKNKAGQEGMLQGKVANIIAIASGKGGVGKSTTTVNLAYALMCEGARVGILDADIYGPSIPSMLGLKNEKPSSSDGKLMTPVDAKGLSAMSIGFLVDEADATVWRGPMASSAFNQLLNETDWPELDYLLIDMPPGTGDIQLTLAQKVPVAAAVIVTTPQDIALIDAVKGIAMFDKVKVPVLGIVENMSYHLCENCGHKSHIFGEAGGEHMAEDHETKLLGQLPLDITIRQDADFGESDIIENSAGEIANHYRKIARNVSAQLFLQCDTASPLTATVAHKALEHHHHHH | soluble |
| MSLKVLIIGGVAAGTKTAAKIKREMGDNCSVTILNKGDDISYAGCGLPYYVGKIIEDKSSLIVNTPESFSKLTGAEVRCGVEVTSIDRNAKQVTLKTLSTGEKENLSYDKLVIATGADPIKPPIPGIDLPGVFFMRTPNDAIKLRDSIENGIKRAVVIGGGFIGLEIAENLSAMGIRVSVVDMAEHVMPGFDTDFAEYVENHMADKGIMIFTGDQVVGIEGENKVEKLRTKNRAIKTDLVVMSVGIRPNTGFLKDTGLEFAPNNTIIADEYMLTNDKDIYVVGDCAFVKNSLTNKPTWSPMGSSANHEGRICAQNISGKSKTYNGVLGTTVVKLPELNAGKTGLSKEIAEKEGYNVCSVTIATDDKAHYYPGASNFIIRMVAEKNTRKLLGVQVMGPGAVDKIVDIAATAITLGADLYSLESMDLAYAPPFSTAIHPFVVAVNVLQNKLNGELDSVLLDEIEDFDSWTKLDVSKAPSIPSLRYIPVGEINGEIEGLAKDEKILLICAKGKNSYMAQNRLRRFGYTNTKVLEGGILFYPNLKVMEEGHHHHHH | soluble |
| MGSDKIHHHHHHMMETTQFNPIQLKRARVARGKTMKVLAEETGISRQMISNYELGKTVPSGLNLVKLISVLNFPKNYFSATQASNLHGATFFRSQNAATKRARDMQSVRLSFQNDIYTTLSQYVNFPKVDLPESLDMDVDDITNDNIKFMAMRVRDQWDLGTKTPIENLIQTAEIHGIVVVKTNMTNDKLDAVSEIIEGRPFIMLTDNGESAVRRRFNVAHELGHIVLHAGIESIHDFTSQQLKNTIERQANLFASTFLMPDDAFVESLLSTSLDYYIKLKQYWKASIQSMIYKTYQLGLINDDQKLYLNKKISWNKWRKIEPLDNILEIENPTLFGKVFNMIIDHKVVSQADLLSELKLPFDELECSLGIQLATQKNISEPKLRLL | not soluble |
| MLTYIILVLHLQNHVWEDVTVHNSSLPPLAIKHPECLGLLHQLERSTDVWIQHYCILKDGCLYFYASIRSTQASGGLYLQGYSVSEQTHGFEQPVIELKPSSEEFKTFYFCAENKTENQRWIAALKTSIKKWLPLDQAIQEFMSRPLEETRM | not soluble |
| MIIHFTLNGAPQELTVNPGENVQKLLFNMGMHSVRNSDDGFGFAGSDAIIFNGNIVNASLLIAAQLEKADIRTAESLGKWNELSLVQQAMVDVGVVQSGYNDPAAALIITDLLDRIAAPTREEIDDALSGLFSRDAGWQQYYQVIELAVARKNNPQATIDIAPTFRDDLEVIGKHYPKTDAAKMVQAKPCYVEDRVTADACVIKMLRSPHAHALITHLDVSKAEALPGVVHVITHLNCPDIYYTPGGQSAPEPSPLDRRMFGKKMRHVGDRVAAVVAESEEIALEALKLIDVEYEVLKPVMSIDEAMAEDAPVVHDEPVVYVAGAPDTLEDDNSHAAQRGEHMIINFPIGSRPRKNIAASIHGHIGDMDKGFADADVIIERTYNSTQAQQCPTETHICFTRMDGDRLVIHASTQVPWHLRRQVARLVGMKQHKVHVIKERVGGGFGSKQDILLEEVCAWATCVTGRPVLFRYTREEEFIANTSRHVAKVTVKLGAKKDGRLTAVKMDFRANTGPYGNHSLTVPCNGPALSLPLYPCDNVDFQVTTYYSNICPNGAYQGYGAPKGNFAITMALAELAEQLQIDQLEIIERNRVHEGQELKILGAIGEGKAPTSVPSAASCALEEILRQGREMIQWSSPKPQNGDWHIGRGVAIIMQKSGIPDIDQANCMIKLESDGTFIVHSGGADIGTGLDTVVTKLAAEVLHCPPQDVHVISGDTDHALFDKGAYASSGTCFSGNAARLAAENLREKILFHGAQMLGEPVADVQLATPGVVRGKKGEVSFGDIAHKGETGTGFGSLVGTGSYITPDFAFPYGANFAEVAVNTRTGEIRLDKFYALLDCGTPVNPELALGQIYGATLRAIGHSMSEEIIYDAEGHPLTRDLRSYGAPKIGDIPRDFRAVLVPSDDKVGPFGAKSISEIGVNGAAPAIATAIHDACGIWLREWHFTPEKILTALEKI | soluble |
| MGHHHHHHSHLGHSTMYMWAMGDREVFIELAEALTGARLTHSYPIPGGARRDIPADFPDMARRAVRYMRKRLDEYAKIFLNNPVIRSRLEGVGVIPKKAAAEMGIVGPNARGSGIDYDVRLVHPYDAYPEIDFEVPVFEEGDALARTYVRVEEIKQSLRIIEQAVEWLEKHPREPIVDKYLYGKYPPLHKKVLEAEGRAKLLPTVAAMKVPPGRAIGRAETGRGETVYYVESDGGVNPYRVRIVTASARNVIAFKYVLPGHRVMDIPAIYGSLDYFPPEADR | not soluble |
| MKHLEIELKTLLKKDEYNRLKDQFTGVTPVLQTNYYIDTPDFELREKKVAMRIRTFEDWAELTLKVPQSVGNMEYNQKLQLKDAENYLSKEELPQGLVLDELAKHGIQSKNWQVLGCLTTLRYEMKTAIGLMALDQSRYFDITDYELELEVENHEQGKQDFRQFLEKNQISYQKAPSKLVRFVKSMKNS | not soluble |

— the DeepSol protein solubility set
